Measured values as given in the supplement of paper PMC10724198.
± gives the standard deviation of the averaged measurements.

Columns and labels:
Saccharomyces cerevisiae [1] = assay: protein stability index of tFT-peptide fusion (C-terminal peptide) (PSI (0-1 scale)); higher = more stable (slower turnover)
Experimental: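 MPS profiling in S. cerevisiae of the tFT-X12 degron library: putative degron peptides plus stable controls, 12 aa, fused to the C-terminus of a sfGFP-mCherry timer. Cells are FACS-sorted into 8 mCherry/sfGFP bins and deep-sequenced. PSI runs from 0 (unstable) to 1 (stable). Backgrounds are wild type, das1Δ and doa10Δ at 30 °C, and wild type, das1Δ, cdc34-1 and cdc53-1 at 37 °C; 2-3 technical replicates each.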

Saccharomyces cerevisiae [2] = assay: as above; settings: genetic background: wild type; temperature: 30 C
[3] = genetic background: cdc34-1, temperature: 37 C
[4] = genetic background: cdc53-1, temperature: 37 C
[5] = genetic background: das1 deletion, temperature: 30 C
[6] = genetic background: das1 deletion, temperature: 37 C
[7] = genetic background: doa10 deletion, temperature: 30 C
[8] = genetic background: wild type, temperature: 30 C
[9] = genetic background: wild type, temperature: 37 C
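Also: PSI is a weighted mean of sequencing reads over stability bins, variants kept only with over 10 reads, mCherry proximal and sfGFP distal, peptide attached via GGGS linker.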

| Sequence | protein stability index (Saccharomyces cerevisiae [1]; [3]) | protein stability index (Saccharomyces cerevisiae [1]; [4]) | protein stability index (Saccharomyces cerevisiae [1]; [5]) | protein stability index (Saccharomyces cerevisiae [1]; [6]) | protein stability index (Saccharomyces cerevisiae [1]; [7]) | protein stability index (Saccharomyces cerevisiae [1]; [8]) | protein stability index (Saccharomyces cerevisiae [1]; [9]) | protein stability index (Saccharomyces cerevisiae [2]) |
| --- | --- | --- | --- | --- | --- | --- | --- | --- |
| CSFCSGMILLLS | 0.522 ± 0.055 | 0.557 ± 0.018 | 0.433 ± 0.02 | 0.583 ± 0.0064 | 0.391 ± 0.004 | 0.323 ± 0.044 | 0.527 ± 0.028 | 0.418 ± 0.0062 |
| CTAWWVKGVAVK | 0.622 ± 0.033 | 0.6395 ± 0.0018 | 0.443 ± 0.031 | 0.643 ± 0.023 | 0.424 ± 0.028 | 0.435 ± 0.018 | 0.624 ± 0.029 | 0.525 ± 0.049 |
| CVILVSFFCYSA | 0.142 ± 0.021 | 0.221 ± 0.014 | 0.142 ± 0.059 | 0.322 ± 0.0071 | 0.119 ± 0.0041 | 0.132 ± 0.059 | 0.284 ± 0.0073 | 0.2201 ± 0.00089 |
| CVLLVFLHLCLA | 0.292 ± 0.0051 | 0.392 ± 0.022 | 0.283 ± 0.027 | 0.4448 ± 0.0025 | 0.256 ± 0.014 | 0.263 ± 0.049 | 0.402 ± 0.0075 | 0.381 ± 0.0019 |
| CVLVLLLRLAFL | 0.5506 ± 0.0053 | 0.5516 ± 0.0013 | 0.44 ± 0.032 | 0.5995 ± 0.0041 | 0.467 ± 0.027 | 0.434 ± 0.0093 | 0.561 ± 0.015 | 0.4885 ± 0.0022 |
| CWILLFGCVWVG | 0.1785 ± 0.0003 | 0.335 ± 0.049 | 0.233 ± 0.023 | 0.397 ± 0.033 | 0.221 ± 0.015 | 0.234 ± 0.0095 | 0.336 ± 0.037 | 0.263 ± 0.0084 |
| CWSSVGLSVCGC | 0.676 ± 0.026 | 0.7508 ± 0.0058 | 0.619 ± 0.031 | 0.7193 ± 0.0065 | 0.597 ± 0.037 | 0.599 ± 0.012 | 0.693 ± 0.024 | 0.601 ± 0.16 |
| CWYRAVSIQYVL | 0.435 ± 0.027 | 0.53 ± 0.025 | 0.367 ± 0.0057 | 0.466 ± 0.021 | 0.26 ± 0.03 | 0.272 ± 0.027 | 0.412 ± 0.0089 | 0.306 ± 0.015 |
| DFWMLLFGIIFA | 0.488 ± 0.041 | 0.521 ± 0.011 | 0.389 ± 0.027 | 0.565 ± 0.033 | 0.387 ± 0.015 | 0.4 ± 0.027 | 0.538 ± 0.017 | 0.449 ± 0.019 |
| DHSWGGLLICTC | 0.476 ± 0.011 | 0.492 ± 0.042 | 0.343 ± 0.049 | 0.546 ± 0.022 | 0.33 ± 0.026 | 0.364 ± 0.028 | 0.513 ± 0.017 | 0.473 ± 0.039 |
| DILCGRCMIVGA | 0.592 ± 0.045 | 0.573 ± 0.023 | 0.415 ± 0.041 | 0.6044 ± 0.0056 | 0.393 ± 0.0059 | 0.422 ± 0.011 | 0.555 ± 0.013 | 0.495 ± 0.018 |
| DIRLWISCTLWF | 0.244 ± 0.019 | 0.361 ± 0.043 | 0.25 ± 0.029 | 0.425 ± 0.014 | 0.26 ± 0.0053 | 0.242 ± 0.025 | 0.37 ± 0.019 | 0.324 ± 0.013 |
| DLFVFFVFHFFL | 0.425 ± 0.032 | 0.532 ± 0.029 | 0.372 ± 0.041 | 0.589 ± 0.013 | 0.377 ± 0.015 | 0.38 ± 0.033 | 0.5686 ± 0.0029 | 0.457 ± 0.026 |
| DLRFAWLLSCFS | 0.44 ± 0.017 | 0.47 ± 0.011 | 0.331 ± 0.034 | 0.501 ± 0.014 | 0.293 ± 0.006 | 0.334 ± 0.022 | 0.476 ± 0.0054 | 0.432 ± 0.015 |
| DSSRRKRLICMN | 0.611 ± 0.016 | 0.702 ± 0.032 | 0.656 ± 0.015 | 0.731 ± 0.008 | 0.18 ± 0.016 | 0.21 ± 0.032 | 0.341 ± 0.017 | 0.25 ± 0.093 |
| DVWEHLHKQHNM | 0.704 ± 0.015 | 0.765 ± 0.032 | 0.699 ± 0.024 | 0.753 ± 0.032 | 0.274 ± 0.021 | 0.348 ± 0.053 | 0.62 ± 0.032 | 0.499 ± 0.085 |
| EGVVLLVDCVAT | 0.4623 ± 0.0015 | 0.465 ± 0.02 | 0.301 ± 0.031 | 0.514 ± 0.0093 | 0.26 ± 0.0074 | 0.308 ± 0.02 | 0.492 ± 0.02 | 0.41 ± 0.025 |
| ERRWKRKVIGLC | 0.632 ± 0.034 | 0.736 ± 0.031 | 0.594 ± 0.015 | 0.734 ± 0.0071 | 0.115 ± 0.025 | 0.131 ± 0.0095 | 0.214 ± 0.024 | 0.274 ± 0.047 |
| ERRWVLVAWRFK | 0.555 ± 0.026 | 0.616 ± 0.013 | 0.442 ± 0.031 | 0.619 ± 0.032 | 0.416 ± 0.0077 | 0.442 ± 0.03 | 0.6 ± 0.017 | 0.494 ± 0.02 |
| ESSRNILLWRTI | 0.69 ± 0.041 | 0.7554 ± 0.00093 | 0.641 ± 0.048 | 0.755 ± 0.032 | 0.247 ± 0.046 | 0.264 ± 0.037 | 0.565 ± 0.018 | 0.443 ± 0.073 |

| Sequence | protein stability index (Saccharomyces cerevisiae [1]; [3]) | protein stability index (Saccharomyces cerevisiae [1]; [4]) | protein stability index (Saccharomyces cerevisiae [1]; [5]) | protein stability index (Saccharomyces cerevisiae [1]; [6]) | protein stability index (Saccharomyces cerevisiae [1]; [7]) | protein stability index (Saccharomyces cerevisiae [1]; [8]) | protein stability index (Saccharomyces cerevisiae [1]; [9]) | protein stability index (Saccharomyces cerevisiae [2]) |
| --- | --- | --- | --- | --- | --- | --- | --- | --- |
| ETYCLPRVASGI | 0.695 ± 0.021 | 0.733 ± 0.026 | 0.655 ± 0.013 | 0.733 ± 0.029 | 0.666 ± 0.02 | 0.665 ± 0.021 | 0.708 ± 0.02 | 0.733 ± 0.0075 |
| EWAILSLGVMCV | 0.0657 ± 0.03 | 0.118 ± 0.085 | 0.193 ± 0.013 | 0.2 ± 0.0075 | 0.158 ± 0.0049 | 0.184 ± 0.032 | 0.173 ± 0.011 | 0.225 ± 0.014 |
| EYGLLLTLLAYY | 0.4526 ± 0.0018 | 0.508 ± 0.047 | 0.351 ± 0.026 | 0.549 ± 0.0092 | 0.2986 ± 0.0026 | 0.324 ± 0.021 | 0.5128 ± 0.0022 | 0.362 ± 0.044 |
| FCDFLFVFPLFS | 0.562 ± 0.016 | 0.596 ± 0.013 | 0.507 ± 0.019 | 0.6583 ± 0.0028 | 0.589 ± 0.011 | 0.479 ± 0.024 | 0.6321 ± 0.0062 | 0.515 ± 0.22 |
| FCLGFRFFVFFL | 0.26 ± 0.011 | 0.291 ± 0.018 | 0.271 ± 0.027 | 0.408 ± 0.013 | 0.208 ± 0.012 | 0.163 ± 0.022 | 0.288 ± 0.021 | 0.218 ± 0.032 |
| FCRLTFCFFAFL | 0.573 ± 0.051 | 0.646 ± 0.0074 | 0.499 ± 0.019 | 0.641 ± 0.0092 | 0.446 ± 0.017 | 0.438 ± 0.014 | 0.5586 ± 0.00064 | 0.47 ± 0.035 |
| FCTSSRLLYCSA | 0.177 ± 0.0029 | 0.222 ± 0.0037 | 0.206 ± 0.026 | 0.3192 ± 0.00046 | 0.175 ± 0.0018 | 0.202 ± 0.026 | 0.278 ± 0.0096 | 0.302 ± 0.01 |
| FCTVYFVCVWEM | 0.1957 ± 0.0014 | 0.273 ± 0.022 | 0.209 ± 0.043 | 0.393 ± 0.033 | 0.177 ± 0.03 | 0.212 ± 0.015 | 0.362 ± 0.014 | 0.334 ± 0.055 |
| FECLLFVNLLVI | 0.274 ± 0.0029 | 0.345 ± 0.014 | 0.24 ± 0.042 | 0.425 ± 0.018 | 0.153 ± 0.014 | 0.188 ± 0.03 | 0.349 ± 0.012 | 0.288 ± 0.02 |
| FFCCRLPCLFVL | 0.369 ± 0.016 | 0.407 ± 0.0051 | 0.363 ± 0.027 | 0.4824 ± 0.0016 | 0.174 ± 0.0061 | 0.174 ± 0.011 | 0.194 ± 0.0073 | 0.252 ± 0.022 |
| FFCLFCLSCWVL | 0.403 ± 0.023 | 0.422 ± 0.02 | 0.331 ± 0.015 | 0.444 ± 0.0054 | 0.323 ± 0.011 | 0.312 ± 0.04 | 0.3863 ± 0.0017 | 0.436 ± 0.054 |
| FFCLVEVFVGVF | 0.0707 ± 0.051 | 0.108 ± 0.023 | 0.115 ± 0.044 | 0.177 ± 0.0027 | 0.089 ± 0.018 | 0.0928 ± 0.033 | 0.107 ± 0.014 | 0.2798 ± 0.0012 |
| FFCVLGLSFFCL | 0.609 ± 0.065 | 0.618 ± 0.016 | 0.568 ± 0.021 | 0.58942 ± 0.00014 | 0.554 ± 0.039 | 0.549 ± 0.021 | 0.566 ± 0.016 | 0.542 ± 0.17 |
| FFLFLFFFLRGS | 0.4853 ± 0.0033 | 0.53967 ± 0.00022 | 0.405 ± 0.025 | 0.533 ± 0.035 | 0.419 ± 0.03 | 0.402 ± 0.035 | 0.511 ± 0.021 | 0.467 ± 0.023 |
| FFRVCNALLLVC | 0.0637 ± 0.058 | 0.0334 ± 0.0086 | 0.148 ± 0.026 | 0.152 ± 0.025 | 0.0531 ± 0.0033 | 0.0394 ± 0.01 | 0.0662 ± 0.015 | 0.0759 ± 0.035 |
| FFSFFLSFRLWF | 0.365 ± 0.061 | 0.298 ± 0.024 | 0.433 ± 0.038 | 0.456 ± 0.012 | 0.596 ± 0.04 | 0.429 ± 0.038 | 0.434 ± 0.058 | 0.449 ± 0.11 |
| FFTLSTVKLLRV | 0.497 ± 0.025 | 0.521 ± 0.02 | 0.427 ± 0.022 | 0.552 ± 0.0087 | 0.385 ± 0.0046 | 0.412 ± 0.027 | 0.5379 ± 0.0018 | 0.508 ± 0.044 |
| YGETRGGGRGRW | 0.587 ± 0.049 | 0.887 ± 0.038 | 0.475 ± 0.034 | 0.766 ± 0.16 | 0.563 ± 0.13 | 0.538 ± 0.12 | 0.65 ± 0.11 |  |
| YVFSPLSCWASV | 0.692 ± 0.056 | 0.74 ± 0.0086 | 0.608 ± 0.021 | 0.7459 ± 0.0044 | 0.603 ± 0.037 | 0.596 ± 0.017 | 0.695 ± 0.019 |  |
